The text below walks through data of US20140271457A1 (AbbVie / Abbott, published 2014).

The target of assay [1] is T1, Recombinant Human TNF-α/TNFSF1A (human, UniProt P01375 77-233). As to the kind of experiment: cell-based or functional assay.
T1 sequence (P01375 77-233 limits assumed): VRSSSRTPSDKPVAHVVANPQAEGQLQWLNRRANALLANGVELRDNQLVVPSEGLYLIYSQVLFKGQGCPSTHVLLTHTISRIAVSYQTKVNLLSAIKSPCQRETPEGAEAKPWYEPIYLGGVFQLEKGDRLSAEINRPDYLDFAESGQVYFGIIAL
Assay [2] deals with Recombinant Human IL-13 (human, UniProt P35225 35-146, limits assumed). As to the kind of experiment: Biacore SPR. In outline:
(§1)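 Antibodies or DVD-Ig captured on anti-mouse IgG (Fcγ) CM5 surface, SPR at 25 °C in HBS-EP+. Antigen at 0.8–100 nM, 50 μl/min; association 5 min, dissociation 10 min. kon and koff came from a global 1:1 fit with local Rmax.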
Target sequence in this assay (P35225 35-146 limits assumed): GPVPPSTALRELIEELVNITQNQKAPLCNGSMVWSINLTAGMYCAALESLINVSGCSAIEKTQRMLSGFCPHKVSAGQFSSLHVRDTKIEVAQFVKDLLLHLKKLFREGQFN

The target in assay [3] is T1, Recombinant Human TNF-α/TNFSF1A. The assay is described as follows: Biacore SPR. In outline: as §1
The target in assay [4] is T2, Recombinant Human TNF-α/TNFSF1A (human, UniProt P01375 77-233).
T2 construct: also called huTNFα
As to the kind of experiment: SPR (Biacore).
T2 sequence (P01375 77-233 limits assumed): as the sequence (P01375 77-233 limits assumed) above

The target of assay [5] is Recombinant Human IL-13 (human, UniProt P35225 35-146, limits assumed). The assay is described as follows: cell-based or functional assay.
Target sequence in this assay (P35225 35-146 limits assumed): as the sequence (P35225 35-146 limits assumed) above

B1: DVD3164 (bispecific antibody, IgG1)
VH: EVQLVQSGAEVKKPGASVKVSCKASGYTFANYGIIWVRQAPGQGLEWMGWINTYTGKPTYAQKFQGRVTMTTDTSTSTAYMELSSLRSEDTAVYYCARKLFTTMDVTDNAMDYWGQGTTVTVSSASTKGPEVQLVQSGAEVKKPGASVKVSCKASGYTFTSYWMHWVRQAPGQGLEWIGNINPKGGSNIYNEKFQGRVTMTRDTSISTAYMELSRLRSDDTAVYYCARLDYFGDSFDLWGQGTTVTVSS
VL: DIQMTQSPSSLSASVGDRVTITCRASQDISQYLNWYQQKPGKAPKLLIYYTSRLQSGVPSRFSGSGSGTDFTLTISSLQPEDFATYFCQQGNTWPPTFGQGTKLEIKRTVAAPDIQMTQSPSSLSASVGDRVTITCRASQGIRNYLNWYQQKPGKAPKLLIYYASNLEVGVPSRFSGSGSGTDYTLTISSLQPEDFATYYCQQDNRFPYTFGGGTKVEIKR
notes: DVD-Ig; wt hIgG1 + kappa constants
In general, Kd refers to the equilibrium constant for the complex coming apart. One may read the koff as a measure of how fast the partners let go of each other. Broadly, the kon is the rate constant with which the complex forms. For the molecule B1, in assay [1], the “N-Terminal VD huTNFα Neutralization Assay IC50” value is 0.021 nM. In addition, in the assay with Recombinant Human IL-13 [2], the Kd was determined as 0.87 nM, the off-rate constant (koff) stood at 4.8e-05 s⁻¹ and the kon came to 55000 M⁻¹ s⁻¹. Besides, in assay [3], the Kd amounted to 0.016 nM, the dissociation rate constant (koff) was 6.5e-05 s⁻¹ and the on-rate constant (kon) was 4e+06 M⁻¹ s⁻¹.

B2: DVD3166 (bispecific antibody, IgG1)
VH: EVQLVQSGAEVKKPGASVKVSCKASGYTFANYGIIWVRQAPGQGLEWMGWINTYTGKPTYAQKFQGRVTMTTDTSTSTAYMELSSLRSEDTAVYYCARKLFTTMDVTDNAMDYWGQGTTVTVSSASTKGPEVQLVQSGAEVKKPGASVKVSCKASGYTFTSYWMHWVRQAPGQGLEWIGNINPKGGSNIYNEKFQGRVTMTRDTSISTAYMELSRLRSDDTAVYYCARLDYFGDSFDLWGQGTTVTVSS
VL: DIQMTQSPSSLSASVGDRVTITCRASQDISQYLNWYQQKPGKAPKLLIYYTSRLQSGVPSRFSGSGSGTDFTLTISSLQPEDFATYFCQQGNTWPPTFGQGTKLEIKRTVAAPSVFIFPPDIQMTQSPSSLSASVGDRVTITCRASQGIRNYLNWYQQKPGKAPKLLIYYASNLEVGVPSRFSGSGSGTDYTLTISSLQPEDFATYYCQQDNRFPYTFGGGTKVEIKR
notes: as for B1
For the molecule B2, in assay [1], the “N-Terminal VD huTNFα Neutralization Assay IC50” value came out at 0.016 nM. Also, in the assay with Recombinant Human IL-13 [2], the Kd was 0.18 nM, the koff stood at 5.1e-05 s⁻¹ and the on-rate constant (kon) amounted to 280000 M⁻¹ s⁻¹. Moreover, in assay [3], the equilibrium dissociation constant (Kd) turned out to be 0.027 nM, the koff is 0.00013 s⁻¹ and the on-rate constant (kon) is 4.7e+06 M⁻¹ s⁻¹.

B3: DVD3169 (bispecific antibody, human IgG1, kappa)
heavy: not shown
light: DIQMTQSPSSLSASVGDRVTITCRASQGIRNYLNWYQQKPGKAPKLLIYYASNLEVGVPSRFSGSGSGTDYTLTISSLQPEDFATYYCQQDNRFPYTFGGGTKVEIKRTVAAPDIQMTQSPSSLSASVGDRVTITCRASQDISQYLNWYQQKPGKAPKLLIYYTSRLQSGVPSRFSGSGSGTDFTLTISSLQPEDFATYFCQQGNTWPPTFGQGTKLEIKRTVAAPSVFIFPPSDEQLKSGTASVVCLLNNFYPREAKVQWKVDNALQSGNSQESVTEQDSKDSTYSLSSTLTLSKADYEKHKVYACEVTHQGLSSPVTKSFNRGEC
notes: DVD-Ig: outer AB399 (IL-13), inner AB441 (TNF); linkers HG-short/LK-short; also called DVD3169H; DVD3169L
In the case of B3, the binding result in assay [4] is recorded as “binds”. Further, the “IL-13 Neutralization Assay IC50” value with Recombinant Human IL-13 [5] came out at 0.089 nM.

B4: DVD3169 (bispecific antibody, IgG1)
VH: EVQLVQSGAEVKKPGASVKVSCKASGYTFTSYWMHWVRQAPGQGLEWIGNINPKGGSNIYNEKFQGRVTMTRDTSISTAYMELSRLRSDDTAVYYCARLDYFGDSFDLWGQGTTVTVSSASTKGPEVQLVQSGAEVKKPGASVKVSCKASGYTFANYGIIWVRQAPGQGLEWMGWINTYTGKPTYAQKFQGRVTMTTDTSTSTAYMELSSLRSEDTAVYYCARKLFTTMDVTDNAMDYWGQGTTVTVSS
VL: DIQMTQSPSSLSASVGDRVTITCRASQGIRNYLNWYQQKPGKAPKLLIYYASNLEVGVPSRFSGSGSGTDYTLTISSLQPEDFATYYCQQDNRFPYTFGGGTKVEIKRTVAAPDIQMTQSPSSLSASVGDRVTITCRASQDISQYLNWYQQKPGKAPKLLIYYTSRLQSGVPSRFSGSGSGTDFTLTISSLQPEDFATYFCQQGNTWPPTFGQGTKLEIKR
notes: as for B1
Regarding B4, the “C-Terminal VD huTNFα Neutralization Assay IC50” value in assay [1] stood at 0.169 nM. Also, in the assay with Recombinant Human IL-13 [2], the Kd came out at 0.01 nM, the koff came to 2e-05 s⁻¹ and the on-rate constant (kon) came to 1.9e+06 M⁻¹ s⁻¹. Also, in assay [3], the Kd is under 0.0015 nM, the koff was under 1e-06 s⁻¹ and the on-rate constant (kon) worked out at 650000 M⁻¹ s⁻¹.

B5: DVD3168 (bispecific antibody, IgG1)
VH: EVQLVQSGAEVKKPGASVKVSCKASGYTFTSYWMHWVRQAPGQGLEWIGNINPKGGSNIYNEKFQGRVTMTRDTSISTAYMELSRLRSDDTAVYYCARLDYFGDSFDLWGQGTTVTVSSGGGGSGGGGSEVQLVQSGAEVKKPGASVKVSCKASGYTFANYGIIWVRQAPGQGLEWMGWINTYTGKPTYAQKFQGRVTMTTDTSTSTAYMELSSLRSEDTAVYYCARKLFTTMDVTDNAMDYWGQGTTVTVSS
VL: DIQMTQSPSSLSASVGDRVTITCRASQGIRNYLNWYQQKPGKAPKLLIYYASNLEVGVPSRFSGSGSGTDYTLTISSLQPEDFATYYCQQDNRFPYTFGGGTKVEIKRGGSGGGGSGDIQMTQSPSSLSASVGDRVTITCRASQDISQYLNWYQQKPGKAPKLLIYYTSRLQSGVPSRFSGSGSGTDFTLTISSLQPEDFATYFCQQGNTWPPTFGQGTKLEIKR
notes: as for B1
In the case of B5, the “C-Terminal VD huTNFα Neutralization Assay IC50” value in assay [1] worked out at 0.146 nM. Besides, in the assay with Recombinant Human IL-13 [2], the Kd was found to be 0.064 nM, the dissociation rate constant (koff) was found to be 7.4e-05 s⁻¹ and the kon is 1.1e+06 M⁻¹ s⁻¹. Moreover, in assay [3], the Kd came to 0.045 nM, the dissociation rate constant (koff) was determined as 3.6e-05 s⁻¹ and the on-rate constant (kon) worked out at 800000 M⁻¹ s⁻¹.

B6: DVD3168 (bispecific antibody, human IgG1, kappa)
heavy: not shown
light: DIQMTQSPSSLSASVGDRVTITCRASQGIRNYLNWYQQKPGKAPKLLIYYASNLEVGVPSRFSGSGSGTDYTLTISSLQPEDFATYYCQQDNRFPYTFGGGTKVEIKRGGSGGGGSGDIQMTQSPSSLSASVGDRVTITCRASQDISQYLNWYQQKPGKAPKLLIYYTSRLQSGVPSRFSGSGSGTDFTLTISSLQPEDFATYFCQQGNTWPPTFGQGTKLEIKRTVAAPSVFIFPPSDEQLKSGTASVVCLLNNFYPREAKVQWKVDNALQSGNSQESVTEQDSKDSTYSLSSTLTLSKADYEKHKVYACEVTHQGLSSPVTKSFNRGEC
notes: DVD-Ig: outer AB399 (IL-13), inner AB441 (TNF); linkers GS-H10/GS-L10; also called DVD3168H; DVD3168L
Consider B6, for which the binding result in assay [4] is reported as “binds”. Further, the “IL-13 Neutralization Assay IC50” value in the assay with Recombinant Human IL-13 [5] came out at 0.081 nM.
